We go through four variants from FireProtDB (doi:10.1093/protein/14.12.967).

B1: Lysozyme C, milk isozyme, P81708 (parent)
chain: KIFSKCELARKLKSMGMDGFHGYSLANWVCMAEYESNFNTQAFNGRNSNGSSDYGIFQLNSKWWCKSNSHSSANACNIMCSKFLDDNIDDDIACAKRVVKDPNGMSAWVAWVKHCKGKDLSKYLASCNL

Several values for one entry are separate records, joined by “and”; a condition that tells them apart may be missing. Identical values can stand only once.

Variants of B1 are the subject of the data set. To be noted: Canis lupus familiaris, pH 4.5, Thermal, DSC, sodium acetate 50 mM, reversible: yes, structure 1EL1, whole UniProt chain shown.

On to A93S, for which, for the setting “66.4 °C”, the “ddG of mutation (higher = less stable)” value turned out to be 0.26 kcal/mol, the “unfolding enthalpy (calorimetric)” value was determined as 32 kcal/mol and the unfolding free energy stood at 1.89 kcal/mol. Also, where the note is “transition: 3”, the “change of melting temperature, mutant - wild type (higher = more stable)” value (“change of melting temperature, mutant” for short) is -2.59 °C; the “unfolding enthalpy (calorimetric)” value was 39.6 kcal/mol and 43.8 kcal/mol.
Take H21G: where the note is “66.4 °C”, the “ddG of mutation (higher = less stable)” value came to 0.48 kcal/mol, the “unfolding enthalpy (calorimetric)” value was 29.1 kcal/mol and the unfolding free energy was 1.67 kcal/mol. Where the note is “transition: 3”, the “change of melting temperature, mutant” value is -3.28 °C; the “unfolding enthalpy (calorimetric)” value is 29.9 kcal/mol and 40.6 kcal/mol.
On to I56L, for which, for the setting “66.4 °C”, the “ddG of mutation (higher = less stable)” value came to 0.24 kcal/mol, the “unfolding enthalpy (calorimetric)” value came out at 31.8 kcal/mol and the unfolding free energy turned out to be 1.91 kcal/mol. Moreover, for the setting “transition: 3”, the “change of melting temperature, mutant” value is -2.44 °C; the “unfolding enthalpy (calorimetric)” value is 23.8 kcal/mol and 43.8 kcal/mol.
For V109K, for the setting “66.4 °C”, the “ddG of mutation (higher = less stable)” value was determined as 0.43 kcal/mol, the “unfolding enthalpy (calorimetric)” value is 31.9 kcal/mol and the unfolding free energy stood at 1.72 kcal/mol. In addition, under “transition: 3”, the “change of melting temperature, mutant” value is -4.16 °C; the “unfolding enthalpy (calorimetric)” value was 43.8 kcal/mol and 42.8 kcal/mol.
